Reference: publication PMC3020774 (The Journal of Biological Chemistry, 2010)

T1: ZHD5-MBP (UniProt Q9FRL5 1-309)
T1 sequence: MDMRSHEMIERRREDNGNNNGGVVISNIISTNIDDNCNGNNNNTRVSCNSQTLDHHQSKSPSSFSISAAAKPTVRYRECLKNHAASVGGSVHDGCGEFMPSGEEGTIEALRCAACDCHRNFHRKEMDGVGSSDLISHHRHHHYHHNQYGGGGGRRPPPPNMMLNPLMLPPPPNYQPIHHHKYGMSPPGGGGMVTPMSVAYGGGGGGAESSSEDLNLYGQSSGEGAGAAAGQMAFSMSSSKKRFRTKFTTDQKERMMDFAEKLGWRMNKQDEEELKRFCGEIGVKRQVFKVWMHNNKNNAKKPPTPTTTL

B1: ATTA EMSA probe (dsDNA)
DNA 1: CAGTGTCTTGTAATTAAAAA
DNA 2: TTTTTAATTACAAGACACTG
B2: recombinant MIF1-GST fusion protein (natural protein)
chain: MMKKRQMVIKQRSRNSNTSSSWTTTSSSSSSSEISNVRYVECQKNHAANIGGYAVDGCREFMAAGVEGTVDALRCAACGCHRNFHRKEVDTEVVCEYSPPNA
B3: recombinant ZHD5-MBP fusion protein (natural protein)
chain: T1 sequence

Key:
ZHD5-MBP = molecular target: T1, ZHD5-MBP; experiment: EMSA
[1] = molecular target: B3; experiment: native gel or EMSA
native gel or EMSA = molecular target: the molecule itself; experiment: native gel or EMSA

B1
binding result (ZHD5-MBP): binds

B2
binding result [1]: binds

B3
binding result (native gel or EMSA): binds
